We go through two substances from paper PMC5599985.

Assay [1] concerns the target biotinylated synthetic peptide containing the C-terminal 16 amino-acid residues of harmonin-a1 including the PBM. Description: SPR.
For assay [2], the target named is NTD-PDZ1 supramodule of harmonin-a1. Description: NMR titration.
The target of assay [3] is PDZ2 domain of harmonin-a1 (amino acids 197-308). Kind of assay: NMR titration.

For “NTD-PDZ1 supramodule of harmonin-a1 (domain or fragment)”, the Kd in assay [1] is 61 µM.
With “synthetic peptide of the C-terminal 16 residues of harmonin-a1 (amino acids 533-548) including the PBM”, the Kd stood at 51 µM in assay [2] and 375 µM in assay [3].

By Kd is commonly meant a measure of binding affinity in units of concentration.
